“And” between values parts separate entries of the source, which are not always exact repeats. Identical values can stand only once.
B1: Aspartate aminotransferase, P00509 (parent)
chain: MFENITAAPADPILGLADLFRADERPGKINLGIGVYKDETGKTPVLTSVKKAEQYLLENETTKNYLGIDGIPEFGRCTQELLFGKGSALINDKRARTAQTPGGTGALRVAADFLAKNTSVKRVWVSNPSWPNHKSVFNSAGLEVREYAYYDAENHTLDFDALINSLNEAQAGDVVLFHGCCHNPTGIDPTLEQWQTLAQLSVEKGWLPLFDFAYQGFARGLEEDAEGLRAFAAMHKELIVASSYSKNFGLYNERVGACTLVAADSETVDRAFSQMKAAIRANYSNPPAHGASVVATILSNDALRAIWEQELTDMRQRIQRMRQLFVNTLQEKGANRDFSFIIKQNGMFSFSGLTKEQVLRLREEFGVYAVASGRVNVAGMTPDNMAPLCEAIVAVL

Variants of: B1
Conditions: Escherichia coli (strain K12); pH 7.5; 25 °C; Urea; Fluorescence; Potassium phosphate 20 mM; reversible: Yes; structure 1AMQ; whole UniProt chain shown

MFANITAAPADPILGLADLFRADERPGKINLGIGVYKDETGKTPVLTSVKKAEQYLLENETTKNYLGIDGIPEFGRCTQELLFGKGSALINDKRARTAQTPGGTGALRVAADFLAKNTSVKRVWVSNPSWPNHKSVFNSAGLEVREYAYYDAENHTLDFDALINSLNEAQAGDVVLFHGCCHNPTGIDPTLEQWQTLAQLSVEKGWLPLFDFAYQGFARGLEEDAEGLRAFAAMHKELIVASSYSKNFGLYNERVGACTLVAADSETVDRAFSQMKAAIRANYSNPPAHGASVVATILSNDALRAIWEQELTDMRQRIQRMRQLFVNTLQEKGANRDFSFIIKQNGMFSFSGLTKEQVLRLREEFGVYAVASGRVNVAGMTPDNMAPLCEAIVAVL [E3A]
ddG of mutation (higher = less stable): 3.8 kcal/mol and 3 kcal/mol

MFENITAAPADPILGLADLFRADERPGKINLGIGVYKDETGKTPVLTSVKKAEQYLLENETTENYLGIDGIPEFGRCTQELLFGKGSALINDKRARTAQTPGGTGALRVAADFLAKNTSVKRVWVSNPSWPNHKSVFNSAGLEVREYAYYDAENHTLDFDALINSLNEAQAGDVVLFHGCCHNPTGIDPTLEQWQTLAQLSVEKGWLPLFDFAYQGFARGLEEDAEGLRAFAAMHKELIVASSYSKNFGLYNKRVGACTLVAADSETVDRAFSQMKAAIRANYSNPPAHGASVVATILSNDALRAIWEQELTDMRQRIQRMRQLFVNTLQEKGANRDFSFIIKQNGMFSFSGLTKEQVLRLREEFGVYAVASGRVNVAGMTPDNMAPLCEAIVAVL [K63E E253K]
ddG of mutation (higher = less stable): 6.7 kcal/mol and 6.5 kcal/mol

MAENITAAPADPILGLADLFRADERPGKINLGIGVYKDETGKTPVLTSVKKAEQYLLENETTKNYLGIDGIPEFGRCTQELLFGKGSALINDKRARTAQTPGGTGALRVAADFLAKNTSVKRVWVSNPSWPNHKSVFNSAGLEVREYAYYDAENHTLDFDALINSLNEAQAGDVVLFHGCCHNPTGIDPTLEQWQTLAQLSVEKGWLPLFDFAYQGFARGLEEDAEGLRAFAAMHKELIVASSYSKNFGLYNERVGACTLVAADSETVDRAFSQMKAAIRANYSNPPAHGASVVATILSNDALRAIWEQELTDMRQRIQRMRQLFVNTLQEKGANRDFSFIIKQNGMFSFSGLTKEQVLRLREEFGVYAVASGRVNVAGMTPDNMAPLCEAIVAVL [F2A]
ddG of mutation (higher = less stable): 7.3 kcal/mol and 7.4 kcal/mol | denaturant midpoint (higher = more stable): 2.28 M and 4.26 M and 5.09 M

MFENITAAPADPILGLADLFRADERPGKINLGIGVYKDETGKTPVLTSVKKAEQYLLENETTKNYLGIDGIPEFGRCTQELLFGKGSALINDKRARTAQTPGGTGALRVAADFLAKNTSVKRVWVSNPSWPNHKSVFNSAGLEVREYAYYDAENHTLDFDALINSLNEAQAGDVVLFHGCCHNPTGIDPTLEQWQTLAQLSVEKGWLPLFDFAYQGFARGLEEDAEGLRAFAAMHKELIVASSYSKNFGLYNERVGACTLVAADSETVDRAFSQMKAAIRANYSRPPAHGASVVATILSNDALRAIWEQELTDMRQRIQRMRQLFVNTLQEKGANRDFSFIIKQNGMFSFSGLTKEQVLRLREEFGVYAVASGRVNVAGMTPDNMAPLCEAIVAVL [N285R]
ddG of mutation (higher = less stable): 4.4 kcal/mol and 5.9 kcal/mol | denaturant midpoint (higher = more stable): 2.91 M and 2.66 M and 4.24 M

MFENITAAPAAPILGLADLFRADERPGKINLGIGVYKDETGKTPVLTSVKKAEQYLLENETTKNYLGIDGIPEFGRCTQELLFGKGSALINDKRARTAQTPGGTGALRVAADFLAKNTSVKRVWVSNPSWPNHKSVFNSAGLEVREYAYYDAENHTLDFDALINSLNEAQAGDVVLFHGCCHNPTGIDPTLEQWQTLAQLSVEKGWLPLFDFAYQGFARGLEEDAEGLRAFAAMHKELIVASSYSKNFGLYNERVGACTLVAADSETVDRAFSQMKAAIRANYSNPPAHGASVVATILSNDALRAIWEQELTDMRQRIQRMRQLFVNTLQEKGANRDFSFIIKQNGMFSFSGLTKEQVLRLREEFGVYAVASGRVNVAGMTPDNMAPLCEAIVAVL [D11A]
ddG of mutation (higher = less stable): 5.9 kcal/mol and 5.1 kcal/mol

MFENITAAPADPILGLADLFRADERPGKINLGIGVYKDETGKTPVLTSVKKAEQYLLENETTENYLGIDGIPEFGRCTQELLFGKGSALINDKRARTAQTPGGTGALRVAADFLAKNTSVKRVWVSNPSWPNHKSVFNSAGLEVREYAYYDAENHTLDFDALINSLNEAQAGDVVLFHGCCHNPTGIDPTLEQWQTLAQLSVEKGWLPLFDFAYQGFARGLEEDAEGLRAFAAMHKELIVASSYSKNFGLYNERVGACTLVAADSETVDRAFSQMKAAIRANYSNPPAHGASVVATILSNDALRAIWEQELTDMRQRIQRMRQLFVNTLQEKGANRDFSFIIKQNGMFSFSGLTKEQVLRLREEFGVYAVASGRVNVAGMTPDNMAPLCEAIVAVL [K63E]
ddG of mutation (higher = less stable): 4.5 kcal/mol | denaturant midpoint (higher = more stable): 2.93 M and 3.9 M and 5.01 M

MFENITAAPADPILGLADLFRADERPGKINLGIGVYKDETGKTPVLTSVKKAEQYLLENETTMNYLGIDGIPEFGRCTQELLFGKGSALINDKRARTAQTPGGTGALRVAADFLAKNTSVKRVWVSNPSWPNHKSVFNSAGLEVREYAYYDAENHTLDFDALINSLNEAQAGDVVLFHGCCHNPTGIDPTLEQWQTLAQLSVEKGWLPLFDFAYQGFARGLEEDAEGLRAFAAMHKELIVASSYSKNFGLYNERVGACTLVAADSETVDRAFSQMKAAIRANYSNPPAHGASVVATILSNDALRAIWEQELTDMRQRIQRMRQLFVNTLQEKGANRDFSFIIKQNGMFSFSGLTKEQVLRLREEFGVYAVASGRVNVAGMTPDNMAPLCEAIVAVL [K63M]
ddG of mutation (higher = less stable): 5.4 kcal/mol and 4.7 kcal/mol | denaturant midpoint (higher = more stable): 2.71 M and 2.81 M and 4.29 M

MFENITAAPADPILGLADLFRADERPGKINLGIGVYKDETGKTPVLTSVKKAEQYLLENETTKNYLGIDGIPEFGRCTQELLFGKGSALINDKRARTAQTPGGTGALRVAADFLAKNTSVKRVWVSNPSWPNHKSVFNSAGLEVREYAYYDAENHTLDFDALINSLNEAQAGDVVLFHGCCHNPTGIDPTLEQWQTLAQLSVEKGWLPLFDFAYQGFARGLEEDAEGLRAFAAMHKELIVASSYSKNFGLYNKRVGACTLVAADSETVDRAFSQMKAAIRANYSNPPAHGASVVATILSNDALRAIWEQELTDMRQRIQRMRQLFVNTLQEKGANRDFSFIIKQNGMFSFSGLTKEQVLRLREEFGVYAVASGRVNVAGMTPDNMAPLCEAIVAVL [E253K]
ddG of mutation (higher = less stable): 7.6 kcal/mol and 7.1 kcal/mol

MFENITAAPADPILGLADLFRADERPGKINLGIGVYKDETGKTPVLTSVKKAEQYLLENETTKNYLGIDGIPEFGRCTQELLFGKGSALINDKRARTAQTPGGTGALRVAADFLAKNTSVKRVWVSNPSWPNHKSVFNSAGLEVREYAYYDAENHTLDFDALINSLNEAQAGDVVLFHGCCHNPTGIDPTLEQWQTLAQLSVEKGWLPLFDFAYQGFARGLEEDAEGLRAFAAMHKELIVASSYSKNFGLYNQRVGACTLVAADSETVDRAFSQMKAAIRANYSNPPAHGASVVATILSNDALRAIWEQELTDMRQRIQRMRQLFVNTLQEKGANRDFSFIIKQNGMFSFSGLTKEQVLRLREEFGVYAVASGRVNVAGMTPDNMAPLCEAIVAVL [E253Q]
ddG of mutation (higher = less stable): 6.3 kcal/mol and 5.4 kcal/mol

— FireProtDB (doi:10.1021/bi801431x)
